# Molecular target: human Aβ antigen (human)
# Assay: cell-based or functional assay
# Sequence of human Aβ antigen (human) (peptide, as listed by the source): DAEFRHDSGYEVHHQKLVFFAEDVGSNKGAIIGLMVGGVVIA
Binder,"relative fluorescence intensity (ThT, Aβ polymerization; hIgG = 1.00)",relative value of LDH release (SHSY5Y cells with Aβ; hIgG = 1.00)
"066-4.26.14H5L2 (antibody, V domains shown) VH: EVQLVESGGGLVQPGGSLRLSCVASGFTFRSYAMSWVRQAPGKGLEWVASISTTSNTYYPDSVKGRFTTSRDNSKNTVYLQMSSLRAEDTAVYYCGRGVITNQAWFAYWGQGTLVTVSS VL: DIVLTQSPATLSVSPGERATLSCRASQSISNNLHWYQQKPGQAPRLLIKYASQSISGIPARFSGSGSGTDFTLTISSLQSEDFAVYFCQQSNSWPLTFGGGTKVEIK",0.67,1.26
"066-4.26.14H4L2 (antibody, V domains shown) VH: EVQLVESGGGLVQPGGSLRLSCAASGFTFRSYAMSWVRQAPGKGLEWVASISTTSNTYYPDSVKGRFTTSRDNAKNSVYLQMSSLRDEDTAMYYCGRGVITNQAWFAYWGQGILVTVSS VL: DIVLTQSPATLSVSPGERATLSCRASQSISNNLHWYQQKPGQAPRLLIKYASQSISGIPARFSGSGSGTDFTLTISSLQSEDFAVYFCQQSNSWPLTFGGGTKVEIK",0.7,1.3
"066-4.26.14H5L1 (antibody, V domains shown) VH: EVQLVESGGGLVQPGGSLRLSCVASGFTFRSYAMSWVRQAPGKGLEWVASISTTSNTYYPDSVKGRFTTSRDNSKNTVYLQMSSLRAEDTAVYYCGRGVITNQAWFAYWGQGTLVTVSS VL: DIVLTQSPATLSVSPGERVTLSCRASQSISNNLHWYQQKSGQAPRLLIKYASQSISGIPSRFSGSGSGTDFTLTISSLQSEDFAVYFCQQSNSWPLTFGGGTQVEIK",0.68,1.37
"066-4.26.14H2L2 (antibody, V domains shown) VH: EVQLVESGGGLVKPGGSLRLSCAASGFTFRSYAMSWVRQTPEKRLEWVASISTTSNTYYPDSVKGRFTTSRDNAKNSVYLQMSSLRAEDTAVYYCGRGVITNQAWFAYWGQGTTVTVSS VL: DIVLTQSPATLSVSPGERATLSCRASQSISNNLHWYQQKPGQAPRLLIKYASQSISGIPARFSGSGSGTDFTLTISSLQSEDFAVYFCQQSNSWPLTFGGGTKVEIK",0.62,1.41
"066-4.26.14 (antibody, V domains shown) VH: EVKLVESGGGLVKPGGSLKLSCAASGFTFRSYAMSWVRQTPEKRLEWVASISTTSNTYYPDSVKGRFTTSRDNARNIVYLQMSSLRSDDTAMYYCGRGVITNQAWFAYWGQGTLVTVSA VL: DIVLTQSPATLSVTPGDSVSLSCRASQSISNNLHWYQQKSHESPRLLIKYASQSISGIPSRFSGSGSGTDFTLSVNNVGTEDFGMYFCQQSNSWPLTFGAGTKLELK",0.7,1.2
"mouse-human chimeric antibody 066-4.26.14-chAb (antibody, human IgG1, kappa, V domains shown) VH: EVKLVESGGGLVKPGGSLKLSCAASGFTFRSYAMSWVRQTPEKRLEWVASISTTSNTYYPDSVKGRFTTSRDNARNIVYLQMSSLRSDDTAMYYCGRGVITNQAWFAYWGQGTLVTVSA VL: DIVLTQSPATLSVTPGDSVSLSCRASQSISNNLHWYQQKSHESPRLLIKYASQSISGIPSRFSGSGSGTDFTLSVNNVGTEDFGMYFCQQSNSWPLTFGAGTKLELKR",0.71,1.32
"066-4.26.14H2L3 (antibody, V domains shown) VH: EVQLVESGGGLVKPGGSLRLSCAASGFTFRSYAMSWVRQTPEKRLEWVASISTTSNTYYPDSVKGRFTTSRDNAKNSVYLQMSSLRAEDTAVYYCGRGVITNQAWFAYWGQGTTVTVSS VL: DIVLTQSPDFQSVTPKEKVTISCRASQSISNNLHWYQQKPDQSPKLLIKYASQSISGIPSRFSGSGSGTDFTLTINSLEAEDAAAYFCQQSNSWPLTFGPGTKVEIK",0.67,1.42
"066-4.26.14H5L3 (antibody, V domains shown) VH: EVQLVESGGGLVQPGGSLRLSCVASGFTFRSYAMSWVRQAPGKGLEWVASISTTSNTYYPDSVKGRFTTSRDNSKNTVYLQMSSLRAEDTAVYYCGRGVITNQAWFAYWGQGTLVTVSS VL: DIVLTQSPDFQSVTPKEKVTISCRASQSISNNLHWYQQKPDQSPKLLIKYASQSISGIPSRFSGSGSGTDFTLTINSLEAEDAAAYFCQQSNSWPLTFGPGTKVEIK",0.78,1.41

# Reference: US20220242937A1 (CHANGCHUN GENESCIENCE PHARMACEUTICAL, published 2022)
